Reference: paper PMC3159478 (Nucleic Acids Research, 2011)
Positions count from the first letter of the chain named. Numbers in names are those of the source. Where two headings read alike, the source gives them in different places.

Legend:
SsoMCM WT [1] = molecular target: T1, SsoMCM WT (Sulfolobus solfataricus, UniProt Q9UXG1 1-686); test: single-pair FRET
T1 sequence: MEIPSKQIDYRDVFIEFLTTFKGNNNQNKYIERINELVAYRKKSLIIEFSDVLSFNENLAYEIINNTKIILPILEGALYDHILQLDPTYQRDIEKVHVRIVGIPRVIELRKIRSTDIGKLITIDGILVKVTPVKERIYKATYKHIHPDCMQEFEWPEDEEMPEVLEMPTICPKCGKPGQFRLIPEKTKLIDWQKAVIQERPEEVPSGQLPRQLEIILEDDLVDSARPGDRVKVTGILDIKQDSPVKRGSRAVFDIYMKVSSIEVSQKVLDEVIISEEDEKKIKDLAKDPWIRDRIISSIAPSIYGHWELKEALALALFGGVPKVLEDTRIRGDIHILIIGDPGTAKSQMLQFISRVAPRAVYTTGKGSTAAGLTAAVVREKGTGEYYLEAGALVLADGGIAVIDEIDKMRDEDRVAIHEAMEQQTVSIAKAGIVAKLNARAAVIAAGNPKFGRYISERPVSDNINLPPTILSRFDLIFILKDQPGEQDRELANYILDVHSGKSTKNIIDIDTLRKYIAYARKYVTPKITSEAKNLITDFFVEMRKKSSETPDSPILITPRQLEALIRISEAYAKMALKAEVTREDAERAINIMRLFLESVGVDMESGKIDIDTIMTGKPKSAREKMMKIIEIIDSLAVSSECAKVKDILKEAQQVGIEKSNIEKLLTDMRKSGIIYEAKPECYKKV

SsoMCM K323A/R440A = molecular target: T2, SsoMCM K323A/R440A (Sulfolobus solfataricus, UniProt Q9UXG1 1-686, K323A;R440A); test: single-pair FRET
T2 sequence: T1 sequence with K323A, R440A

Q9UXG1 [2] = test: FRET or BRET
Q9UXG1 [3] = test: FRET or BRET; remark: listed apart in the source
Q9UXG1 [4] = test: FRET or BRET; remark: listed apart in the source
Q9UXG1 [5] = test: FRET or BRET; remark: listed apart in the source
Q9UXG1 [6] = test: FRET or BRET; remark: listed apart in the source
SEC = molecular target: the molecule itself; test: SEC
SsoMCM WT [7] = molecular target: T1, SsoMCM WT; test: fluorescence anisotropy

B1: spFRET fork 5'-tail 50 (51 nt) (mixed)
DNA 1: TGGCGACGGCAGCGAGGCTTTTTTTTTTTTTTTTTTTTTTTTTTTTTTT
DNA 2: TTTTTTTTTTTTTTTTTTTTTTTTTTTTTTTTTTTTTTTTTTTTTTTTTTTGCCTCGCTGCCGTCGCCA
- binding result (SsoMCM WT [1]): binds
- binding result (SsoMCM K323A/R440A): binds

B2: spFRET fork 5'-tail 70 (71 nt) (mixed)
DNA 1: B1 DNA 1
DNA 2: TTTTTTTTTTTTTTTTTTTTTTTTTTTTTTTTTTTTTTTTTTTTTTTTTTTTTTTTTTTTTTTTTTTTTTTGCCTCGCTGCCGTCGCCA
- binding result (SsoMCM WT [1]): binds
- binding result (SsoMCM K323A/R440A): binds

B3: Wild-type SsoMCM fluorescently labelled at the N-terminus with Alexa 488 (donor) or Alexa 555 (acceptor) (protein)
chain: T1 sequence
- kobs1 of MCM subunit exchange (first exponential, direct exchange of subunits) (Q9UXG1 [2]): 0.125 ± 0.005 min⁻¹
- kobs1 of MCM subunit exchange (first exponential, direct exchange of subunits) (Q9UXG1 [3]): 0.192 s⁻¹
- kobs1 of MCM subunit exchange (first exponential, direct exchange of subunits) (Q9UXG1 [4]): 0.196 s⁻¹
- kobs1 of MCM subunit exchange (first exponential, direct exchange of subunits) (Q9UXG1 [5]): 0.0556 s⁻¹
- kobs1 of MCM subunit exchange (first exponential, direct exchange of subunits) (Q9UXG1 [6]): 0.0474 s⁻¹

B4: Full-length wild-type Sulfolobus solfataricus minichromosome maintenance (MCM) helicase (enzyme, UniProt Q9UXG1 1-686, looked up)
chain: T1 sequence
- stoichiometry N (SEC): 6

B5: SsoMCM K323A (enzyme, Sulfolobus solfataricus, UniProt Q9UXG1 1-686, looked up)
chain: T1 sequence with K323A
- stoichiometry N (SEC): 6

B6: SsoMCM K323A/R440A (enzyme, Sulfolobus solfataricus, UniProt Q9UXG1 1-686, looked up)
chain: T1 sequence with K323A, R440A
- stoichiometry N (SEC): 6

B7: SsoMCM R440A (enzyme, Sulfolobus solfataricus, UniProt Q9UXG1 1-686, looked up)
chain: T1 sequence with R440A
- stoichiometry N (SEC): 6

B8: ssDNA (66 nt) (ssDNA)
DNA: CACCTCTCCCTACGCTTCCCACCCACCCCGACCGGCATCTGCTATGGTACGCTGAGCGAGAGTAGC
- Kd (SsoMCM WT [7]): 26 ± 5 nM
